Assay results reported in patent US20090208522A1.
Where “and” joins values, the source holds several entries; their conditions need not be identical. Equal values may be shown once. One block for each substance: values may come before it.

Assays:
[1] = target: GDF8 protein (R&D Systems Inc.) (UniProt O14793); experiment: cell-based or functional assay
[2] = target: Purified CHO-derived FLAG-tagged human GDF8 prohormone (precursor GDF8) (human) (UniProt O14793); experiment: indirect ELISA, proGDF8FLAG coated at 5 ug/mL
[3] = target: TMV-FV7 (DJ5(12)-U1-GPAT coat protein fusion, from pLSB-FV7); experiment: DAS ELISA, virion captured by PVAS 135D
[4] = target: Purified CHO-derived FLAG-tagged human GDF8 prohormone (precursor GDF8) (human) (UniProt O14793); experiment: indirect ELISA
[5] = target: DJ2 peptide (GDF8 active region peptide 282-301) (human); experiment: ELISA, peptide coated 500 ng/well, antibody diluted 1:40
[6] = target: DJ4 peptide (GDF8 active region peptide 312-331) (human); experiment: as above
[7] = target: DJ5 peptide (GDF8 active region peptide 327-346) (human); experiment: as above
[8] = target: DJ7 peptide (GDF8 active region peptide 357-375) (human); experiment: as above
[9] = target: DJ6 peptide (GDF8 active region peptide 342-361) (human); experiment: as above
[10] = target: DJ1 peptide (GDF8 active region peptide 267-286) (human); experiment: as above
[11] = target: DJ3 peptide (GDF8 active region peptide 297-316) (human); experiment: as above
[12] = target: DJ2 peptide (GDF8 active region peptide 282-301) (human); experiment: ELISA, peptide coated 500 ng/well, antibody diluted 1:20
[13] = target: DJ4 peptide (GDF8 active region peptide 312-331) (human); experiment: as above
[14] = target: DJ5 peptide (GDF8 active region peptide 327-346) (human); experiment: as above
[15] = target: DJ7 peptide (GDF8 active region peptide 357-375) (human); experiment: as above
[16] = target: DJ6 peptide (GDF8 active region peptide 342-361) (human); experiment: as above
[17] = target: DJ1 peptide (GDF8 active region peptide 267-286) (human); experiment: as above
[18] = target: DJ3 peptide (GDF8 active region peptide 297-316) (human); experiment: as above
[19] = target: DJ5 (20) peptide conjugated to BSA (human); experiment: indirect ELISA, conjugate coated at 5 ug/mL
[20] = target: TMV-FV7 (DJ5(12)-U1-GPAT coat protein fusion, from pLSB-FV7); experiment: DAS ELISA, PVAS 135D capture
[21] = target: TMV-FV7 (DJ5(12)-U1-GPAT coat protein fusion, from pLSB-FV7); experiment: indirect ELISA, endpoint dilution
[22] = target: DJ2 peptide (GDF8 active region peptide 282-301) (human); experiment: ELISA, peptide coated 500 ng/well, antibody diluted 1:80
[23] = target: DJ4 peptide (GDF8 active region peptide 312-331) (human); experiment: as above
[24] = target: DJ5 peptide (GDF8 active region peptide 327-346) (human); experiment: as above
[25] = target: DJ7 peptide (GDF8 active region peptide 357-375) (human); experiment: as above
[26] = target: DJ6 peptide (GDF8 active region peptide 342-361) (human); experiment: as above
[27] = target: DJ1 peptide (GDF8 active region peptide 267-286) (human); experiment: as above
[28] = target: DJ3 peptide (GDF8 active region peptide 297-316) (human); experiment: as above
[29] = target: Purified CHO-derived FLAG-tagged human GDF8 prohormone (precursor GDF8) (human) (UniProt O14793); experiment: direct ELISA, response per pmole
[30] = target: Purified CHO-derived FLAG-tagged human GDF8 prohormone (precursor GDF8) (human) (UniProt O14793); experiment: ELISA, prohormone coated 250 ng/well, antibody diluted 1:20
[31] = target: Purified CHO-derived FLAG-tagged human GDF8 prohormone (precursor GDF8) (human) (UniProt O14793); experiment: ELISA, prohormone coated 250 ng/well, antibody diluted 1:80
[32] = target: Purified CHO-derived FLAG-tagged human GDF8 prohormone (precursor GDF8) (human) (UniProt O14793); experiment: ELISA, prohormone coated 250 ng/well, antibody diluted 1:40
[33] = target: TMV U1 coat protein / wild-type TMV U1 virus (tobacco mosaic virus, strain U1) (UniProt P69687); experiment: DAS ELISA, virion captured by PVAS-135D
[34] = target: TMV-FV7 (DJ5(12)-U1-GPAT coat protein fusion, from pLSB-FV7); experiment: DAS ELISA, virion captured by PVAS-135D
[35] = target: TMV U1 coat protein / wild-type TMV U1 virus (tobacco mosaic virus, strain U1) (UniProt P69687); experiment: indirect ELISA, antigen coated at 5 ug/mL
[36] = target: TMV U5 coat protein / TMV U5 virus (tobacco mild green mosaic virus (TMV U5)); experiment: indirect ELISA, antigen coated at 5 ug/mL
[37] = target: TMV-FV7 (DJ5(12)-U1-GPAT coat protein fusion, from pLSB-FV7); experiment: indirect ELISA, antigen coated at 5 ug/mL

- % Inhibition of GDF8 Activity (in vitro transcriptional activation assay), 250 ug IgG [1]: 7%
- % Inhibition of GDF8 Activity (in vitro transcriptional activation assay, A204 cells, luciferase reporter), 250 ug IgG [1]: 0%
Substance: Normal goat IgG (purified from non-immunized goat sera, commercially purchased) (antibody)

Substance: Rat monoclonal antibody MAB788 (R&D Systems, anti-mouse GDF8)
- endpoint dilution (reciprocal dilution) [2]: 21900
- endpoint dilution (reciprocal dilution) [3]: 7290
- endpoint dilution higher than for DJ5(20) BSA (log10) [4]: 2
- ELISA reactivity (OD 405/minute x 1000) (OD405/min x 1000) [5]: 0
- ELISA reactivity (OD 405/minute x 1000) (OD405/min x 1000) [6]: 0
- ELISA reactivity (OD 405/minute x 1000) (OD405/min x 1000) [7]: 118
- ELISA reactivity (OD 405/minute x 1000) (OD405/min x 1000) [8]: 0
- ELISA reactivity (OD 405/minute x 1000) (OD405/min x 1000) [9]: 0
- ELISA reactivity (OD 405/minute x 1000) (OD405/min x 1000) [10]: 0
- ELISA reactivity (OD 405/minute x 1000) (OD405/min x 1000) [11]: 0
- ELISA reactivity (OD 405/minute x 1000) (OD405/min x 1000) [12]: 0
- ELISA reactivity (OD 405/minute x 1000) (OD405/min x 1000) [13]: 0
- ELISA reactivity (OD 405/minute x 1000) (OD405/min x 1000) [14]: 133
- ELISA reactivity (OD 405/minute x 1000) (OD405/min x 1000) [15]: 0
- ELISA reactivity (OD 405/minute x 1000) (OD405/min x 1000) [16]: 0
- ELISA reactivity (OD 405/minute x 1000) (OD405/min x 1000) [17]: 4
- ELISA reactivity (OD 405/minute x 1000) (OD405/min x 1000) [18]: 0
- endpoint dilution (reciprocal dilution) [19]: 270
- fold lower endpoint dilution than for the GDF8 prohormone [20]: 3 fold
- fold higher response than against the U1 coat protein [21]: 3 fold
- ELISA reactivity (OD 405/minute x 1000) (OD405/min x 1000) [22]: 0
- ELISA reactivity (OD 405/minute x 1000) (OD405/min x 1000) [23]: 0
- ELISA reactivity (OD 405/minute x 1000) (OD405/min x 1000) [24]: 102
- ELISA reactivity (OD 405/minute x 1000) (OD405/min x 1000) [25]: 0
- ELISA reactivity (OD 405/minute x 1000) (OD405/min x 1000) [26]: 0
- ELISA reactivity (OD 405/minute x 1000) (OD405/min x 1000) [27]: 0
- ELISA reactivity (OD 405/minute x 1000) (OD405/min x 1000) [28]: 0
- fold higher response than to TMV-FV6 and TMV-FV7 [29]: 2 fold and 3 fold
- ELISA reactivity (OD 405/minute x 1000) (OD405/min x 1000) [30]: 132
- ELISA reactivity (OD 405/minute x 1000) (OD405/min x 1000) [31]: 132
- ELISA reactivity (OD 405/minute x 1000) (OD405/min x 1000) [32]: 127
- endpoint dilution (reciprocal dilution) [33]: 180
- endpoint dilution (reciprocal dilution) [34]: 14600
- endpoint dilution (reciprocal dilution) [35]: 1620
- endpoint dilution (reciprocal dilution) [36]: < 20
- endpoint dilution (reciprocal dilution) [37]: 4860
- % Inhibition of GDF8 Activity (in vitro transcriptional activation assay), 0.1 ug IgG [1]: 0%
- % Inhibition of GDF8 Activity (in vitro transcriptional activation assay), 1.8 ug IgG [1]: 0%
- % Inhibition of GDF8 Activity (in vitro transcriptional activation assay), 3.1 ug IgG [1]: 7%
- % Inhibition of GDF8 Activity (in vitro transcriptional activation assay), 6.3 ug IgG [1]: 17%
- % Inhibition of GDF8 Activity (in vitro transcriptional activation assay), 12.5 ug IgG [1]: 47%
